The values that follow come from the supplement of paper PMC10567573.

Sequences and labels used below:
B1: TMEM106C (parent)
chain: TVPEILVHNIVIFMRTSVKISYIG
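Further: lentivirally expressed fusions sorted by FACS into six bins by GFP to DsRed ratio, PSI derived from sequencing read proportions per bin multiplied by bin number.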

In the data set the parent is B1. The data set is described as follows: protein stability index of a GFP-peptide fusion (GPS, HEK-293T) (PSI 1-6); higher = more stable. The conditions noted are these: c terminus: a fixed tail appended.
TVPEIIVHNIVIFMRTSVKISYIG: the protein stability index was found to be 2.59.
Consider TVPEIAVHNIVIFMRTSVKISYIG, for which the protein stability index was found to be 3.67.
With TVPEIPVHNIVIFMRTSVKISYIG, the protein stability index is 2.63.
Consider TVPEITVHNIVIFMRTSVKISYIG, for which the protein stability index worked out at 2.83.
Consider TVPEIRVHNIVIFMRTSVKISYIG, for which the protein stability index is 4.09.
In the case of TVPEICVHNIVIFMRTSVKISYIG it was 4.05; in that of TVPEIKVHNIVIFMRTSVKISYIG, 2.5.
On to TVPEIMVHNIVIFMRTSVKISYIG, for which the protein stability index was 2.78.
On to TVPEILVHNIVIFMRASVKISYIG, for which the protein stability index amounted to 1.5.
For TVPEILVHNIVCFMRTSVKISYIG, the protein stability index amounted to 2.8.
For the variant TVPEILVHNIVHFMRTSVKISYIG, the protein stability index is 3.33.
In the case of TVPEILVHNIVQFMRTSVKISYIG it was 2.11.
For TVPEILVHNIVSFMRTSVKISYIG, the protein stability index amounted to 2.88.
In the case of TVPEILVHNIVTFMRTSVKISYIG, the protein stability index is 2.07.
As for TVPEILVHNIVPFMRTSVKISYIG, the protein stability index is 2.19.
Take TVPEILVHNIVGFMRTSVKISYIG: the protein stability index was found to be 3.97.
In the case of TVPEILVHNIVLFMRTSVKISYIG it was 3.84; in that of TVPEILVHNIVEFMRTSVKISYIG, 3.69.
As for TVPEILVHNIVDFMRTSVKISYIG, the protein stability index was 3.93.
Turning to TVPEILVHNIVMFMRTSVKISYIG, the protein stability index was determined as 2.29.
Turning to TVPEILVHNIVRFMRTSVKISYIG, the protein stability index worked out at 3.25.
In the case of TVPEILVHNIVWFMRTSVKISYIG, the protein stability index turned out to be 2.08.
Regarding TVPEILVHNIVYFMRTSVKISYIG, the protein stability index came to 3.05.
For TVPEILVHNIVKFMRTSVKISYIG, the protein stability index was 2.81.
As for TVPEILVHNIVNFMRTSVKISYIG, the protein stability index came to 3.08.
In the case of TVPEILVHNIVFFMRTSVKISYIG it was 2.8; in that of TVPEILVHNIVVFMRTSVKISYIG, 2.64.
With TVPEILVHNAVIFMRTSVKISYIG, the protein stability index came to 3.07.
Turning to TVPEILVHNCVIFMRTSVKISYIG, the protein stability index was determined as 2.67.
With TVPEILVHNKVIFMRTSVKISYIG, the protein stability index amounted to 4.3.
With TVPEILVHNDVIFMRTSVKISYIG, the protein stability index was found to be 2.47.
For the variant TVPEILVHNRVIFMRTSVKISYIG, the protein stability index was determined as 2.42.
Consider TVPEILVHNPVIFMRTSVKISYIG, for which the protein stability index worked out at 2.49.
In the case of TVPEILVHNYVIFMRTSVKISYIG it was 2.71.
For TVPEILVHNGVIFMRTSVKISYIG, the protein stability index is 4.19.
In the case of TVPEILVHNEVIFMRTSVKISYIG it was 3.64.
For the variant TVPEILVHNMVIFMRTSVKISYIG, the protein stability index stood at 3.31.
TVPEILVHNHVIFMRTSVKISYIG: the protein stability index was 3.4.
In the case of TVPEILVHNWVIFMRTSVKISYIG it was 3.61.
Turning to TVPEILVHNVVIFMRTSVKISYIG, the protein stability index worked out at 2.92.
In the case of TVPEILVHNQVIFMRTSVKISYIG it was 2.94.
Regarding TVPEILVHNFVIFMRTSVKISYIG, the protein stability index came to 3.5.
As for TVPEILVHNTVIFMRTSVKISYIG, the protein stability index was found to be 2.67.
For TVPEILVHNNVIFMRTSVKISYIG, the protein stability index amounted to 2.65.
TVPEILVHNIVIFVRTSVKISYIG: the protein stability index amounted to 2.68.
In the case of TVPEILVHNIVIFIRTSVKISYIG it was 2.85.
Take TVPEILVHNIVIFWRTSVKISYIG: the protein stability index was 2.87.
As for TVPEILVHNIVIFDRTSVKISYIG, the protein stability index was 3.11.
Regarding TVPEILVHNIVIFFRTSVKISYIG, the protein stability index amounted to 2.97.
As to TVPEILVHNIVIFARTSVKISYIG, the protein stability index came out at 3.73.
As to TVPEILVHNIVIFERTSVKISYIG, the protein stability index was found to be 3.79.
With TVPEILVHNIVIFYRTSVKISYIG, the protein stability index was determined as 2.6.
For the variant TVPEILVHNIVIFKRTSVKISYIG, the protein stability index was 3.19.
Consider TVPEILVHNIVIFQRTSVKISYIG, for which the protein stability index was determined as 3.58.
Take TVPEILVHNIVIFLRTSVKISYIG: the protein stability index was 3.05.
For the variant TVPEILVHNIVIFGRTSVKISYIG, the protein stability index turned out to be 3.13.
In the case of TVPEILVHNIVIFRRTSVKISYIG it was 2.21; in that of TVPEILVHNIVIFSRTSVKISYIG, 4.03; in that of TVPEILVHNIVIFCRTSVKISYIG, 2.99.
As to TVPEILVHNIVIFPRTSVKISYIG, the protein stability index stood at 3.45.
Take TVPEILVHNIVIFNRTSVKISYIG: the protein stability index was 3.25.
As for TVPEILVHNIVIFHRTSVKISYIG, the protein stability index turned out to be 2.91.
In the case of TVPEILTHNIVIFMRTSVKISYIG it was 2.15; in that of TVPEILNHNIVIFMRTSVKISYIG, 2.83.
Regarding TVPEILDHNIVIFMRTSVKISYIG, the protein stability index is 2.53.
Regarding TVPEILWHNIVIFMRTSVKISYIG, the protein stability index was 3.68.
On to TVPEILRHNIVIFMRTSVKISYIG, for which the protein stability index was 2.44.
In the case of TVPEILYHNIVIFMRTSVKISYIG it was 3.26.
Consider TVPEILIHNIVIFMRTSVKISYIG, for which the protein stability index is 4.62.
On to TVPEILHHNIVIFMRTSVKISYIG, for which the protein stability index stood at 3.09.
In the case of TVPEILLHNIVIFMRTSVKISYIG it was 2.24; in that of TVPEILKHNIVIFMRTSVKISYIG, 3.79.
In the case of TVPEILQHNIVIFMRTSVKISYIG, the protein stability index came to 3.02.
For TVPEILMHNIVIFMRTSVKISYIG, the protein stability index came out at 2.05.
TVPEILFHNIVIFMRTSVKISYIG: the protein stability index was found to be 2.51.
In the case of TVPEILSHNIVIFMRTSVKISYIG, the protein stability index was 2.37.
In the case of TVPEILEHNIVIFMRTSVKISYIG it was 4.49.
As to TVPEILPHNIVIFMRTSVKISYIG, the protein stability index came out at 3.59.
With TVPEILGHNIVIFMRTSVKISYIG, the protein stability index was 3.49.
For TVPEILCHNIVIFMRTSVKISYIG, the protein stability index is 3.89.
TVPEILAHNIVIFMRTSVKISYIG: the protein stability index turned out to be 3.25.
In the case of TVPEILVQNIVIFMRTSVKISYIG it was 2.63.
Take TVPEILVKNIVIFMRTSVKISYIG: the protein stability index was determined as 3.34.
For TVPEILVRNIVIFMRTSVKISYIG, the protein stability index amounted to 2.67.
TVPEILVDNIVIFMRTSVKISYIG: the protein stability index turned out to be 3.5.
On to TVPEILVSNIVIFMRTSVKISYIG, for which the protein stability index came out at 3.74.
On to TVPEILVGNIVIFMRTSVKISYIG, for which the protein stability index was determined as 2.27.
On to TVPEILVINIVIFMRTSVKISYIG, for which the protein stability index came out at 2.58.
Regarding TVPEILVPNIVIFMRTSVKISYIG, the protein stability index came out at 3.19.
For the variant TVPEILVFNIVIFMRTSVKISYIG, the protein stability index was 3.98.
In the case of TVPEILVVNIVIFMRTSVKISYIG it was 2.81; in that of TVPEILVTNIVIFMRTSVKISYIG, 2.41; in that of TVPEILVLNIVIFMRTSVKISYIG, 3.28.
Consider TVPEILVNNIVIFMRTSVKISYIG, for which the protein stability index was 3.21.
